Literature values as cited in patent publication US20090215646A1, “SYSTEM AND METHOD OF ANALYTE DETECTION USING DIFFERENTIAL RECEPTORS” (The Board of Regents of the University of Texas Sy, priority 2005, published 2009).

B1: Ovalbumin: glycoprotein analyte obtained commercially (protein, UniProt P01012 2-386, looked up)
Ovalbumin: GSIGAASMEFCFDVFKELKVHHANENIFYCPIAIMSALAMVYLGAKDSTRTQINKVVRFDKLPGFGDSIEAQCGTSVNVHSSLRDILNQITKPNDVYSFSLASRLYAEERYPILPEYLQCVKELYRGGLEPINFQTAADQARELINSWVESQTNGIIRNVLQPSSVDSQTAMVLVNAIVFKGLWEKAFKDEDTQAMPFRVTEQESKPVQMMYQIGLFRVASMASEKMKILELPFASGTMSMLVLLPDEVSGLEQLESIINFEKLTEWTSSNVMEERKIKVYLPRMKMEEKYNLTSVLMAMGITDVFSSSANLSGISSAESLKISQAVHAAHAEINEAGREVVGSAEAGVDAASVSEEFRADHPFLFCIKHIATNAVLFFGRCVSP

conditions: isoelectric point

**Q.** For “Fetuin: glycoprotein analyte obtained commercially”, which pI is on record?
**A.** 4.5-4.9

**Q.** For “Lysozyme: protein analyte obtained commercially”, which pI is on record?
**A.** 9.6-11

**Q.** For B1, which pI is on record?
**A.** 4.6
